{"source": "paper PMC9655578", "proteins": {"B1": {"name": "CYP101D5 (Sphingomonas echinoides) (protein)", "chain": "MSAAEEIHTPRPAHVPADRVVELDMYNPQGIEKGYLEAWTSLQTADLPSMVWTPLNGGHWIATRGELIQDIYCDPDHFSSHVIFIPKAAGEKYAMVPSKMDPPEHRPYREVVDKGLNLRAIREREPAVRAHAIALIEAFADKGHCDFVEEFSGEFPIRVFMMMADLPMEDSPKLRAFAAGMTRPEGNTPTEMADALDRANRSFFDYVSPIIDARMGGDGTDILTLSINSQVNGAPMEREKLLGMVSLLLLAGLDTVTNFLNMTMDYLGRHPDKVRELTENPTEIRRGVEELFRRFPLVAAARMVAHDVERDGVELKQGEMVLLPTALHGLDPRVNADPWEVDFQRKRPAHSTFGNGPHRCAGLHLARLETTVMLEEWLKRIPTFRVVPGTGPTYHSGVVASVDGVRLEW"}}, "key": {"purified protein [1]": {"substrate": "O=C1C[C@@H](c2ccc(O)cc2)Oc2cc(O)cc(O)c21", "experiment": "purified protein", "details": "CYP:Pdx:PdR 1:8:2 (P. putida redox partners; CYP 1 µM), 500 µM NADH, phosphate buffer; 3'-hydroxylation"}, "purified protein [2]": {"substrate": "O=c1cc(-c2ccc(O)cc2)oc2cc(O)cc(O)c12", "experiment": "purified protein", "details": "CYP:Pdx:PdR 1:8:2 (P. putida redox partners; CYP 1 µM), 500 µM NADH, phosphate buffer; 3'-hydroxylation"}}}
{"protein": "B1", "values": [{"measurement": "Km", "setting": "purified protein [1]", "result": "26.39 ± 2.23", "unit": "µM"}, {"measurement": "kcat", "setting": "purified protein [1]", "result": 0.0195, "unit": "s⁻¹"}, {"measurement": "Km", "setting": "purified protein [2]", "result": "46.28 ± 4.88", "unit": "µM"}, {"measurement": "kcat", "setting": "purified protein [2]", "result": 0.0138, "unit": "s⁻¹"}]}
